Reference: patent US20240270860A1

Tests used:
Test in all cases: peptide-array ELISA (CYS.S) [Continued]
2LS2…2RPGWY2 = molecular target: T1, 2LS2…2RPGWY2
T1 sequence (peptide, 2 = Cys(ACM)): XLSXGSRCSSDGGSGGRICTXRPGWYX

2LS2…2RPGWY = molecular target: T2, 2LS2…2RPGWY
T2 sequence (peptide, 2 = Cys(ACM)): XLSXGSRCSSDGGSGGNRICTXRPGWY

2…2RPGWY2AL = molecular target: T3, 2…2RPGWY2AL
T3 sequence (peptide, 2 = Cys(ACM)): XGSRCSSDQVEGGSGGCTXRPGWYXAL

2…2RPGWY2A = molecular target: T4, 2…2RPGWY2A
T4 sequence (peptide, 2 = Cys(ACM)): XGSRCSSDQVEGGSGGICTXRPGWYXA

2…2RPGWY = molecular target: T5, 2…2RPGWY
T5 sequence (peptide, 2 = Cys(ACM)): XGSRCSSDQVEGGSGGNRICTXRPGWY

[1] = molecular target: T6, 2…
T6 sequence (peptide, 2 = Cys(ACM)): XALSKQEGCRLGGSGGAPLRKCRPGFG

[2] = molecular target: T7, 2…; remark: listed apart in the source
T7 sequence (peptide, 2 = Cys(ACM)): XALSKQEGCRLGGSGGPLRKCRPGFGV

[3] = molecular target: T8, 2…; remark: listed apart in the source
T8 sequence (peptide, 2 = Cys(ACM)): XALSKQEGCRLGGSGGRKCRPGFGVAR

E2LS2…2RPGWY = molecular target: T9, E2LS2…2RPGWY
T9 sequence (peptide, 2 = Cys(ACM)): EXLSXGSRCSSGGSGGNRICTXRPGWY

[4] = molecular target: T10, EGCRL2…2…
T10 sequence (peptide, 2 = Cys(ACM)): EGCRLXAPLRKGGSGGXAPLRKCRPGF

[5] = molecular target: T11, EGCRL2…
T11 sequence (peptide, 2 = Cys(ACM)): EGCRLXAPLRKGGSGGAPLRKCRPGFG

[6] = molecular target: T12, EQNRI2…
T12 sequence (peptide, 2 = Cys(ACM)): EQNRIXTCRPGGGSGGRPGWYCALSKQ

[7] = molecular target: T13, KQEGCRL2…
T13 sequence (peptide, 2 = Cys(ACM)): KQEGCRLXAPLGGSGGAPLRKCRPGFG

LS2…2RPGWY2AL = molecular target: T14, LS2…2RPGWY2AL
T14 sequence (peptide, 2 = Cys(ACM)): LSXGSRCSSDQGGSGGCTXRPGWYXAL

LS2…2RPGWY2 = molecular target: T15, LS2…2RPGWY2
T15 sequence (peptide, 2 = Cys(ACM)): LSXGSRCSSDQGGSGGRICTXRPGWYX

PE2LS2…2RPGWY2AL = molecular target: T16, PE2LS2…2RPGWY2AL
T16 sequence (peptide, 2 = Cys(ACM)): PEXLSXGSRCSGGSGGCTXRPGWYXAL

PE2LS2…2RPGWY2A = molecular target: T17, PE2LS2…2RPGWY2A
T17 sequence (peptide, 2 = Cys(ACM)): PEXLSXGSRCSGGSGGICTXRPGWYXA

PE2LS2…2RPGWY = molecular target: T18, PE2LS2…2RPGWY
T18 sequence (peptide, 2 = Cys(ACM)): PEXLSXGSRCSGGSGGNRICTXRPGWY

[8] = molecular target: T19, QEGCRL2…
T19 sequence (peptide, 2 = Cys(ACM)): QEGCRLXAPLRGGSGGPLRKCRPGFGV

S2…2RPGWY2AL = molecular target: T20, S2…2RPGWY2AL
T20 sequence (peptide, 2 = Cys(ACM)): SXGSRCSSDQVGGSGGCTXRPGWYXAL

S2…2RPGWY2 = molecular target: T21, S2…2RPGWY2
T21 sequence (peptide, 2 = Cys(ACM)): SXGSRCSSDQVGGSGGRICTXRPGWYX

S2…2RPGWY = molecular target: T22, S2…2RPGWY
T22 sequence (peptide, 2 = Cys(ACM)): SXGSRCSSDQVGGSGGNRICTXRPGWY

[9] = molecular target: T23, SKQEGCRL2APGGSGG2…
T23 sequence (peptide, 2 = Cys(ACM)): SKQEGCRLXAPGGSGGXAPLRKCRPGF

[10] = molecular target: T24, SKQEGCRL2…
T24 sequence (peptide, 2 = Cys(ACM)): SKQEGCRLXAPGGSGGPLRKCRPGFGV

[11] = molecular target: T25, TREQNRI2…
T25 sequence (peptide, 2 = Cys(ACM)): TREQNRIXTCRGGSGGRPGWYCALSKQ

VPE2LS2…2RPGWY2AL = molecular target: T26, VPE2LS2…2RPGWY2AL
T26 sequence (peptide, 2 = Cys(ACM)): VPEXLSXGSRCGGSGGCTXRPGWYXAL

[12] = molecular target: T27, WY2…
T27 sequence (peptide, 2 = Cys(ACM)): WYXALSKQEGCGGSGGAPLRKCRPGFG

[13] = molecular target: T28, WY2…; remark: listed apart in the source
T28 sequence (peptide, 2 = Cys(ACM)): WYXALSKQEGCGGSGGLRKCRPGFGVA

[14] = molecular target: T29, WY2…; remark: listed apart in the source
T29 sequence (peptide, 2 = Cys(ACM)): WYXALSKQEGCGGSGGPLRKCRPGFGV

[15] = molecular target: T30, Y2…2…
T30 sequence (peptide, 2 = Cys(ACM)): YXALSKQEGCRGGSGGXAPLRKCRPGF

…2GGSGGCT2RPGWY2AL = molecular target: T31, …2GGSGGCT2RPGWY2AL
T31 sequence (peptide, 2 = Cys(ACM)): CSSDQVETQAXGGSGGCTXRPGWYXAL

…2RPGWY2 = molecular target: T32, …2RPGWY2
T32 sequence (peptide, 2 = Cys(ACM)): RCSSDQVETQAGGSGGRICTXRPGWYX

…2RPGWY [16] = molecular target: T33, …2RPGWY
T33 sequence (peptide, 2 = Cys(ACM)): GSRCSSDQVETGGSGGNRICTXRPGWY

…2RPGWY [17] = molecular target: T34, …2RPGWY; remark: listed apart in the source
T34 sequence (peptide, 2 = Cys(ACM)): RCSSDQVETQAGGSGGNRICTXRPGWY

…2…2RPGWY2 = molecular target: T35, …2…2RPGWY2
T35 sequence (peptide, 2 = Cys(ACM)): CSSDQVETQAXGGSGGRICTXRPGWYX

[18] = molecular target: T36, …2…
T36 sequence (peptide, 2 = Cys(ACM)): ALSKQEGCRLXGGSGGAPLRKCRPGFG

[19] = molecular target: T37, …2…; remark: listed apart in the source
T37 sequence (peptide, 2 = Cys(ACM)): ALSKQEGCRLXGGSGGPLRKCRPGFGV

[20] = molecular target: T38, …2…; remark: listed apart in the source
T38 sequence (peptide, 2 = Cys(ACM)): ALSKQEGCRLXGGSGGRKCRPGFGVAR

[21] = molecular target: T39, …2…; remark: listed apart in the source
T39 sequence (peptide, 2 = Cys(ACM)): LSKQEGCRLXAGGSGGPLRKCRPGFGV

[22] = molecular target: T40, …2…; remark: listed apart in the source
T40 sequence (peptide, 2 = Cys(ACM)): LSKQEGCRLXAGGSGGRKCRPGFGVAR

B1: antagonistic TNFR2 antibody TNFRAB1 (antibody, V domains shown)
VH: EVQLQESGGGLVKPGGSLKLSCAASGFTFSSYVMSWVRQTPEKRLEWVATISSGGSYTYYPDSVKGRFTISRDNAKNTLYLQMSSLRSEDTAMYYCARQRVDGYSSYWYFDVWGAGTAVTVSS
VL: DIVLTQSPAIMSASPGEKVTITCSASSSVYYMYWFQQKPGTSPKLWIYSTSNLASGVPVRFSGSGSGTSYSLTISRMEAEDAATYYCQQRRNYPYTFGGGTKLEIKR
A Raw luminescence data (2LS2…2RPGWY2) of 436, a Raw luminescence data (2LS2…2RPGWY) of 878 and a Raw luminescence data (2…2RPGWY2AL) of 480 were found for B1 in this work. For the same binder, the Raw luminescence data (2…2RPGWY2A) was 402, the Raw luminescence data (2…2RPGWY) was 588 and the Raw luminescence data [1] was 418. For the same binder, the Raw luminescence data [2] was 414, the Raw luminescence data [3] was 443 and the Raw luminescence data (E2LS2…2RPGWY) was 389. It also gave a Raw luminescence data [4] of 604, a Raw luminescence data [5] of 312 and a Raw luminescence data [6] of 263. The Raw luminescence data [7] was 242, the Raw luminescence data (LS2…2RPGWY2AL) was 510 and the Raw luminescence data (LS2…2RPGWY2) was 546. It also gave a Raw luminescence data (PE2LS2…2RPGWY2AL) of 697, a Raw luminescence data (PE2LS2…2RPGWY2A) of 542 and a Raw luminescence data (PE2LS2…2RPGWY) of 928. For the same binder, the Raw luminescence data [8] was 558, the Raw luminescence data (S2…2RPGWY2AL) was 538 and the Raw luminescence data (S2…2RPGWY2) was 465. The Raw luminescence data (S2…2RPGWY) was 666, the Raw luminescence data [9] was 507 and the Raw luminescence data [10] was 369. The Raw luminescence data [11] was 188, the Raw luminescence data (VPE2LS2…2RPGWY2AL) was 483 and the Raw luminescence data [12] was 534. The Raw luminescence data [13] was 336, the Raw luminescence data [14] was 341 and the Raw luminescence data [15] was 308. For the same binder, the Raw luminescence data (…2GGSGGCT2RPGWY2AL) was 265, the Raw luminescence data (…2RPGWY2) was 543 and the Raw luminescence data (…2RPGWY [16]) was 587. The Raw luminescence data (…2RPGWY [17]) was 247, the Raw luminescence data (…2…2RPGWY2) was 597 and the Raw luminescence data [18] was 321. It also gave a Raw luminescence data [19] of 446, a Raw luminescence data [20] of 455 and a Raw luminescence data [21] of 434. It also gave a Raw luminescence data [22] of 474.
